The text below walks through data of patent US20250221923A1, “BOOSTING OSMOTIC BLOOD-ORGAN BARRIER OPENING FOR IMPROVED DELIVERY OF THERAPEUTICS TO ORGANS” (priority 2024, published 2025).

In series [1] the test system is brain hemispheres. The note with it: mouse, in vivo.
Procedure: Then, monoclonal antibody (mAb) bevacizumab was conjugated to deferoxamine (DFO) and the conjugate was radiolabeled with zirconium-89 (^89Zr). OBBBO was performed using 25% mannitol or 4% NaCl in 25% mannitol, followed by intraarterial (IA) injection of the radiolabeled mAb and positron-emission tomography (PET) imaging to assess the distribution of the mAb. The percentages of injected dose per cubic centimeter of tissue (% ID/g) and standardized uptake values (SUV) were calculated for selected organs and regions.
Approximately 7.5 MBq (˜202 μCi) of ^89Zr-BVDFO reconstituted in 0.2 mL of saline was infused intraarterially at a speed of 0.15 mL/min and each animal was transferred to the PET/CT scanner. […] Regions of interest (ROIs), including right and left brain hemispheres, heart, lungs, and liver, were demarcated in the axial plane, and standardized uptake values (SUV) were calculated using the Fiji ImageJ PET/CT plugin.
Linear mixed modeling with restricted maximum likelihood (REML) method was performed using ‘Imer’ package, with % ID/g or SUVmean or SUVmax as a dependent variable, organs and BBBO type as fixed effects and mouse ID as a random effect. Estimated marginal means were calculated using ‘emmeans’ package for organ and BBBO interactions, and p-values for pairwise comparisons were extracted.
A further series concerns brain. Particulars: mouse, in vivo. From the text:
In experiment 2, IA injections of antibodies suspended in 0.9% NaCl were comparted to IA injections of antibodies suspended in serum. PET imaging and post-mortem antibody biodistribution were used as outcome measures.

The subject of another series is head and neck region. Also on record: species or system mice. The note with it: mouse, in vivo. Here is the method:
Radiolabeled bevacizumab (Zr 89-bevacizumab) was administered via both IA and IV routes. […] Ex vivo measurements of drug biodistribution across various organs further corroborated these findings, quantifying radioactivity in specific tissues such as the skin, salivary glands, tongue, and jaw muscle (FIG. 7e). The method comprised pretreatment with composition comprising a hyperosmotic agent, stopping the pretreatment administration, and then administrating the radiolabeled bevacizumab. Without being bound by theory, it is believed that to enhance drug delivery, the pretreatment with the hyperosmotic agent would extract water from the tissue (local dehydration), followed by rapid rehydration upon cessation of the hyperosmotic infusion. This process was expected to improve the transition of the intra-arterially administered drug from the vascular compartment to the parenchymal tissues, thereby increasing drug accumulation in the targeted areas.

In series [2] the test system is brain hemispheres and organs. In words: Ex vivo biodistribution of ^89Zr-BVDFO after OBBBO (Example 1). More on the design: species or system mice. The note with it: mouse. As for the experimental part: On completion of PET/CT after infusion of ^89Zr-BVDFO, the mice were euthanized and left and right brain hemispheres, heart, lungs, liver, spleen, kidneys, and blood were harvested, weighed using Mettler Toledo […] Balance and radioactivity of each was measured using CRC®[…] Dose Calibrator and Well Counter, Mirion Technologies. To calculate the percentage injected dose per […] of tissue (% ID/g), first, the radioactivity present in the syringe after injection was measured and subtracted from initial measurement before injection to calculate the total injected dose. Then, the percentage of each organ's radioactivity measurement relative to the total injected dose was calculated and divided by the weight of the organ. The biodistribution data shown are mean % ID/g+SE.

The subject of series [3] is brain hemispheres. More on the design: species or system mice. Particulars: mouse. As for the experimental part: A catheter was placed into the right internal carotid artery (ICA) in 14 male C57BL6 mice for intra-arterial (IA) injections. […] To confirm OBBBO, Gadolinium-enhanced T1 MRI was conducted, and safety was confirmed through subsequent serial MRI over 1-2 weeks.

Consider “^89Zr-BVDFO: monoclonal antibody bevacizumab (Avastin) conjugated to deferoxamine (DFO) and radiolabeled with zirconium-89”, for which the “accumulation of radioactivity in the ipsilateral hemisphere” value in the series with brain hemispheres [1] was “substantial accumulation”. In the series with brain, the “CNS penetration, antibodies suspended in 0.9% NaCl vs suspended in serum” value is recorded as “much higher”. Moreover, the “antibody penetration to the brain, IA vs IV” value with brain (iv) was “much higher”. Moreover, the “antibody uptake in the head and neck region, IA compared to IV” value in the series with head and neck region is “significantly higher”. Also, the “uptake in the blood, lungs, spleen, liver, and kidneys” value in series [2] is “high uptake”. In the series on brain hemispheres [3], the “ex vivo biodistribution, accumulation in the ipsilateral hemisphere” value is reported as “confirmed by ex vivo biodistribution”. Also, in the series on brain hemispheres [3] (in vivo), the “standardized uptake values (SUV), accumulation in the ipsilateral hemisphere” value is “substantial accumulation”.
